Laboratory results published in IntAct's records for PubMed 19704022.

Experiments:
[1] = molecular target: cof1_rat Cfl1 (UniProt P45592)
[2] = molecular target: cof1_rat Cfl1 (UniProt P45592); remark: listed apart in the source
[3] = molecular target: cofa_dicdi cofA (UniProt P0DJ26)
Sequence of cofa_dicdi cofA (P0DJ26 whole entry): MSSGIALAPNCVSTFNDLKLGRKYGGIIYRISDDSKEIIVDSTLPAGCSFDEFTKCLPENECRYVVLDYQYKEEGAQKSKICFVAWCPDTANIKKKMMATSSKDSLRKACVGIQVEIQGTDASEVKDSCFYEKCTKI

Sequence of Src substrate cortactin (Mus musculus), Q60598 Y421F;Y466F;Y482F (Q60598 whole entry Y421F/Y466F/Y482F): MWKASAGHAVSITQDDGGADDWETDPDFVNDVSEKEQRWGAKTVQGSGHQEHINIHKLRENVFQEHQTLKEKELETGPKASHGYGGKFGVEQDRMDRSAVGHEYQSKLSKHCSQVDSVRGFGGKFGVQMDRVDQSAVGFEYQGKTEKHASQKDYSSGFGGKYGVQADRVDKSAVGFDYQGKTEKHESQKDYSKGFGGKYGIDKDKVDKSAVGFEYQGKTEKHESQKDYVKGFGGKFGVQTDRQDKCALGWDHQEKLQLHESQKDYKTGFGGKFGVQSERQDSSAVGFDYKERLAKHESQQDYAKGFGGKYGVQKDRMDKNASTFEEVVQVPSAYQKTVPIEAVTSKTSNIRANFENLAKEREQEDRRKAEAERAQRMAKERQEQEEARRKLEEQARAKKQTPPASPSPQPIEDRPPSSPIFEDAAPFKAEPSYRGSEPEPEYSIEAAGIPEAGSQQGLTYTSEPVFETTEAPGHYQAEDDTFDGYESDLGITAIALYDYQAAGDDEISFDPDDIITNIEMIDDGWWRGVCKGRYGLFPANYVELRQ
Sequence of cof1_rat Cfl1 (P45592 whole entry): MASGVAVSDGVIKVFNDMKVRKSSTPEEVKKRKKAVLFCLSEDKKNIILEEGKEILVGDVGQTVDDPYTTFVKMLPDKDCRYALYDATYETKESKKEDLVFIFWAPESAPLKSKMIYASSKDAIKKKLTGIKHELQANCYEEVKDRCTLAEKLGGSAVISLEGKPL
Sequence of Src substrate cortactin (Mus musculus), Q60598 Y421E;Y466E;Y482E (Q60598 whole entry Y421E/Y466E/Y482E): as the sequence (Q60598 whole entry Y421F/Y466F/Y482F) above, with F421E, F466E, F482E counted along it

Src substrate cortactin (Mus musculus), Q60598 Y421E;Y466E;Y482E
effect of a mutation on the interaction [1]: decreasing interaction

Src substrate cortactin (Mus musculus), Q60598 Y421F;Y466F;Y482F
effect of a mutation on the interaction [2]: increasing interaction | effect of a mutation on the interaction [3]: increasing interaction
